# Data from article PMC11301264, “Bactericidal human monoclonal antibody 1B1 shows specificity for meningococcal factor H binding protein variant 2 and displaces human factor H” (FASEB BioAdvances, 2024).
# T1: factor H binding protein (fHbp) variant 2.16, wild type, recombinant (Neisseria meningitidis serogroup B, …, strain)
# T1 construct: Construct described in earlier work; vector pET-21b is named for the template plasmid; also called fHbp var 2; v2.16
# T1 chain: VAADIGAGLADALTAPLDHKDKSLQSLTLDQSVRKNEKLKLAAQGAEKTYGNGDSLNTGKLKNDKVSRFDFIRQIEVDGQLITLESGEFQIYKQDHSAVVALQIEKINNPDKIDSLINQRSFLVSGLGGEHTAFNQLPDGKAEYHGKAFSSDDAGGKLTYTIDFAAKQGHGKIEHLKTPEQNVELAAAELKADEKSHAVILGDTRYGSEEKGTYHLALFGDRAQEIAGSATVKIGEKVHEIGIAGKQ
# Columns and labels:
# [1] = molecular target: fHbp variant 1.1 on live meningococci of MenB strain MC58 (Neisseria meningitidis (endogenous in strain MC58)) (UniProt Q9JXV4)
# [2] = molecular target: fHbp variant 3.28 on live meningococci of MenB strain M1239 (Neisseria meningitidis (endogenous in strain M1239)) (UniProt E6MV22)
# [3] = molecular target: T1, factor H binding protein (fHbp) variant …; assay: BLI; mAb (1B1 or 4B3, 10 mcg/mL) captured via Fc on Anti-Fc Human (AHC) biosensors; fHbp in solution, 150 to 1 nM; 30°C; 1 x PBS, 1% (w/v) BSA; 1:1 fit; conditions: both partners purified
binder,measurement,setting,value
"human monoclonal antibody 1B1, full-length IgG1 (antibody, V domains shown, also called humAb 1B1; mAb 1B1; source: mammalian cells, recombinant, purified as described previously) VH: EVQLVESGGNLVQPGGSLRLSCAASGFTFSSYSMNWVRQAPGKGLEWVSYISSSSSTIYYADSVKGRFTISRDNAKNSLYLQMNSLRAEDTAVYYCARVAAGLKDWGQGTLVTVSS VL: EIVLTQSPGTLSLSPGERATLSCRASQSISSSYLAWYQQKPGQAPRLLIFGASSRATGIPDRFSGSGSGTGFTLTISRLEPEDFAVYYCQHYDSSLPMTFGQGTKVEIK",hSBA (human complement) titer against MenB strain MC58,[1],< 4 titer
same,rSBA (rabbit complement) titer against MenB strain MC58,[1],< 16 titer
same,hSBA (human complement) titer against strain 5/99DD complemented with fHbp 3.28,[2],< 4 titer
same,rSBA (rabbit complement) titer against strain 5/99DD complemented with fHbp 3.28,[2],< 16 titer
same,Kd,[3],0.24 nM
